Laboratory results taken from the supplement of paper PMC10724198.
± gives the standard deviation of the averaged measurements.

Tests used:
Saccharomyces cerevisiae [1] = assay: protein stability index of tFT-peptide fusion (C-terminal peptide) (PSI (0-1 scale)); higher = more stable (slower turnover)
Procedure: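 MPS profiling in S. cerevisiae of the tFT-X12 degron library: putative degron peptides plus stable controls, 12 aa, fused to the C-terminus of a sfGFP-mCherry timer. Cells are FACS-sorted into 8 mCherry/sfGFP bins and deep-sequenced. PSI runs from 0 (unstable) to 1 (stable). Backgrounds are wild type, das1Δ and doa10Δ at 30 °C, and wild type, das1Δ, cdc34-1 and cdc53-1 at 37 °C; 2-3 technical replicates each.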

Saccharomyces cerevisiae [2] = assay: as above; conditions: genetic background: wild type; temperature: 30 C
[3] = genetic background: cdc34-1, temperature: 37 C
[4] = genetic background: cdc53-1, temperature: 37 C
[5] = genetic background: das1 deletion, temperature: 30 C
[6] = genetic background: das1 deletion, temperature: 37 C
[7] = genetic background: doa10 deletion, temperature: 30 C
[8] = genetic background: wild type, temperature: 30 C
[9] = genetic background: wild type, temperature: 37 C
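Note: PSI is a weighted mean of sequencing reads over stability bins, variants kept only with over 10 reads, mCherry proximal and sfGFP distal, peptide attached via GGGS linker.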

Sequence	protein stability index (Saccharomyces cerevisiae [1]; [3])	protein stability index (Saccharomyces cerevisiae [1]; [4])	protein stability index (Saccharomyces cerevisiae [1]; [5])	protein stability index (Saccharomyces cerevisiae [1]; [6])	protein stability index (Saccharomyces cerevisiae [1]; [7])	protein stability index (Saccharomyces cerevisiae [1]; [8])	protein stability index (Saccharomyces cerevisiae [1]; [9])	protein stability index (Saccharomyces cerevisiae [2])
ALFLLWVVMHDV	0.2376 ± 0.0022	0.337 ± 0.021	0.247 ± 0.036	0.421 ± 0.018	0.195 ± 0.024	0.219 ± 0.035	0.397 ± 0.022	0.343 ± 0.011
FACLTPFCLCLT	0.527 ± 0.016	0.564 ± 0.015	0.422 ± 0.015	0.5742 ± 0.0044	0.325 ± 0.005	0.349 ± 0.013	0.51106 ± 0.0004	0.431 ± 0.025
DPKQVRIQSSWL	0.699 ± 0.016	0.721 ± 0.046	0.644 ± 0.042	0.723 ± 0.013	0.6273 ± 0.0026	0.663 ± 0.018	0.6863 ± 0.0034	0.7428 ± 0.0039
RSFNVGLELLVW	0.382 ± 0.026	0.395 ± 0.035	0.295 ± 0.05	0.449 ± 0.0063	0.259 ± 0.0039	0.297 ± 0.046	0.4159 ± 0.001	0.398 ± 0.0062
GICLVLVSDIWI	0.579 ± 0.032	0.558 ± 0.0064	0.413 ± 0.026	0.599 ± 0.018	0.374 ± 0.04	0.39 ± 0.014	0.568 ± 0.029	0.441 ± 0.018
TGPLVHLLCCCV	0.354 ± 0.011	0.417 ± 0.011	0.313 ± 0.028	0.3955 ± 0.0013	0.284 ± 0.0075	0.315 ± 0.019	0.386 ± 0.0074	0.421 ± 0.011
TYHRSYLLATVV	0.49857 ± 0.00019	0.55 ± 0.08	0.378 ± 0.028	0.543 ± 0.016	0.181 ± 0.0023	0.224 ± 0.024	0.331 ± 0.00026	0.314 ± 0.025
GFLAVTVACVWR	0.0513 ± 0.0097	0.136 ± 0.0021	0.154 ± 0.018	0.258 ± 0.013	0.13 ± 0.014	0.145 ± 0.037	0.213 ± 0.026	0.255 ± 0.048
GRVCWVVLAGLV	0.593 ± 0.04	0.591 ± 0.053	0.441 ± 0.026	0.6202 ± 0.0013	0.307 ± 0.01	0.341 ± 0.026	0.5394 ± 0.0042	0.429 ± 0.0095
FLCIFFFFLISF	0.25 ± 0.012	0.194 ± 0.0028	0.261 ± 0.027	0.32 ± 0.004	0.346 ± 0.023	0.235 ± 0.035	0.297 ± 0.02	0.27 ± 0.011
CLLDVVMVVERG	0.384 ± 0.055	0.432 ± 0.0095	0.347 ± 0.032	0.4016 ± 0.0028	0.364 ± 0.035	0.347 ± 0.016	0.392 ± 0.0043	0.365 ± 0.012
CASVCCFFAWIV	0.571 ± 0.028	0.623 ± 0.011	0.46 ± 0.046	0.5941 ± 0.0019	0.299 ± 0.017	0.323 ± 0.0068	0.4749 ± 0.00052	0.416 ± 0.06
HPPPPPPPPSLS	0.673 ± 0.038	0.715 ± 0.0098	0.666 ± 0.028	0.7362 ± 0.0017	0.677 ± 0.029	0.67 ± 0.013	0.7037 ± 0.002	0.513 ± 0.062
VSCLDLCFVISR	0.647 ± 0.041	0.681 ± 0.022	0.503 ± 0.034	0.66874 ± 0.00016	0.528 ± 0.029	0.514 ± 0.025	0.626 ± 0.018	0.437 ± 0.013
ARGVAAAFVSGF	0.696 ± 0.043	0.7725 ± 0.0057	0.657 ± 0.03	0.746 ± 0.016	0.661 ± 0.023	0.653 ± 0.0078	0.725 ± 0.03	0.595 ± 0.23
KFFRSWVLTSPA	0.585 ± 0.06	0.607 ± 0.015	0.427 ± 0.032	0.6157 ± 0.0025	0.41 ± 0.021	0.444 ± 0.018	0.609 ± 0.021	0.494 ± 0.057
QCSPGLPHAQGL	0.692 ± 0.025	0.71 ± 0.015	0.634 ± 0.024	0.733 ± 0.014	0.657 ± 0.028	0.666 ± 0.039	0.708 ± 0.013	0.565 ± 0.15
VVFLFVEAVVGV	0.0536 ± 0.018	0.0519 ± 0.021	0.0387 ± 0.014	0.0974 ± 0.015	0.0288 ± 0.0048	0.0238 ± 0.0054	0.0933 ± 0.022	0.0707 ± 0.0075
PLRRPPPRPPWP	0.65 ± 0.025	0.7054 ± 0.0032	0.674 ± 0.024	0.7032 ± 0.003	0.69 ± 0.03	0.644 ± 0.025	0.687 ± 0.011	0.494 ± 0.036
SDLQVMKLRSVC	0.717 ± 0.048	0.742 ± 0.045	0.619 ± 0.025	0.714 ± 0.026	0.185 ± 0.007	0.191 ± 0.013	0.456 ± 0.021	0.398 ± 0.067
